# “Also recorded” adds a separate entry of the source.
# B1: mRANKL-MT3: mouse RANKL mutant: K180R, D189I, R190K, H223F, H224Y; nucleic acid SEQ ID NO: 3 (protein, UniProt O35235 158-316, looked up, variant K180R D189I R190K H223F H224Y)
# chain: KPEAQPFAHLTINAASIPSGSHRVTLSSWYHIKGWAKISNMTLSNGKLRVNQDGFYYLYANICFRFYETSGSVPTDYLQLMVYVVKTSIKIPSSHNLMKGGSTKNWSGNSEFHFYSINVGGFFKLRAGEEISIQVSNPSLLDPDQDATYFGAFKVQDID
# Assays:
# [1] = tested on: ovariectomized (OVX) mice; test: mtRANKL immunization in ovariectomized (OVX) mice, micro-CT; format: in vivo, mouse; settings: mice ovariectomized after immunization with mtRANKL vs OVX mice
# Description: […] As for the X-ray source, the field of view was set to 45 mm, 90 kV and […] (voxel size, 90 μm; scanning time, 14 minutes). CT imaging was performed using a Quantum GX 3D Viewer software. After scanning, image segmentation was performed in Analyze (AnalyzeDirect, Overland Park, Kans., USA). Briefly, the legs were segmented using semi-automatic and manual tools (e.g., object extractor, area expansion, and object separator) using volume editing tools. Then, a 3D rendering of the leg was created, and bone mineral density (BMD), bone volume (BV), bone volume percentage (%), and trabecular thickness were calculated using the ROI tools.
# 17-week-old […] BALB/c mice were equally divided into a group that was given OVX after immunization with mtRANKL, a group that was given only OVX, and a non-treated negative control group.
# The mtRANKL-immunized group was immunized with mtRANKL a total of three times: started with 1st immunization at 52 days, 2nd immunization at 39 days, 3rd immunization at 14 days each before OVX. mtRANKL used in the immunization was injected after mixing with an aluminum hydroxide adjuvant. The amount of mtRANKL was 0.2 mg per mouse.
# 52 days after 1st immunization, OVX was performed. On day 70 after OVX, serum were collected and tibias were extracted, and then the adhesive soft tissues of tibias were removed. […]
# BMMs [2] = test: Bone-resorption assay (Osteo Assay Surface plates); format: cell-based, mouse; settings: 6 days, mRANKL-MT3 150 ng/mL
# Description: We used bone-resorption and F-actin ring formation assays to investigate osteoclast activity. To observe bone resorption in vitro, BMMs were cultured in Corning Osteo Assay Surface 96-well Multiple Well Plates (Sigma) with 30 ng/mL M-CSF and 75 ng/mL sRANKL (soluble RANKL; R&D Systems) or isolated RANKL for 6 days. Then, the plates were washed with pure water. To monitor actin ring formation, BMMs were grown on glass slides. After culture, the cells were fixed with 4% formalin, permeabilized with 0.5% Triton X100 in PBS for 5 min at room temperature, and incubated with 0.5 mg/mL TRITC-labelled phalloidin for 30 min. The cells were then rinsed with PBS. F-actin rings were visualized using a fluorescence ECLIPSE Ts2R microscope (Nikon, Tokyo, Japan).
# BMMs [3] = test: Real-time PCR of osteoclastogenesis mRNA in RANKL-induced BMMs; format: cell-based, mouse; settings: mRANKL-MT3-induced BMMs compared with mRANKL-WT induced BMMs
# Description: Meanwhile, for Real-time PCR, BMM cells were incubated with 30 ng/mL M-CSF and 75 ng/mL sRANKL (R&D Systems) or isolated RANKL in 6-well plates. Total RNA was extracted using TRIzol reagent (Invitrogen, Thermo Fisher Scientific, Inc.). The cDNA was synthesized from 2 μg total RNA using ReverTra Ace qPCR RT Master Mix (TOYOBO, Osaka, Japan). Real-time PCR was conducted on a CFX Connect RealTime PCR Detection System (Bio-Rad, Hercules, Calif., USA) in a reaction mixture (total volume, 20 μL) containing IQ SYBR Green Supermix (Bio-Rad), 10 pmol forward primer, 10 pmol reverse primer, and 1 μg cDNA.
# [4] = tested on: bone marrow-derived monocytes (BMMs); test: TRAP analysis of osteoclastogenesis induced by RANKL variants in BMMs; format: cell-based, mouse; settings: RANKL-treated primary BMM; listed as mtRANKL
# Description: The RANKL-RANK binding sites are K180, D189, R190, H223, H224, which are conserved between humans and mice. We selected 4 mutant RANKLs to be purified. Their size corresponded to the wild type RANKL (39 kDa) (FIG. 2B). Tartrate-resistant acid […] (TRAP) activity was absent for all RANKLs even at 150 ng/mL (FIG. 2C, D).
# 4-week old male BALB/c mice were purchased from Orient Bio (Gwangju, Korea) and kept in an animal facility approved by the Chosun University Animal Management Committee (IACUC2017-A0002). After obtaining bone marrow cells from mice, bone marrow mononuclear cells were seeded into 96-well plates (1 Y 10^4 cells/well), and in the absence or presence of various concentrations of compounds, incubated with M-CSF (100 ng/mL) overnight before stimulation with RANKL (50 ng/well). The medium was replaced every other days. 6 days later, the cells were fixed with 4% paraformaldehyde, permeated in 0.1% Triton X-100, and washed with PBS. Then, TRAP activity (Sigma-Aldrich, St. Louis, Mo., USA) staining was performed. TRAP-positive multinuclear cells containing 5 or more nuclei were counted as osteoclasts.
# To evaluate the effect of mtRANKL on osteoclastogenesis, TRAP analysis was performed on RANKL-treated primary bone marrow-derived macrophages (BMM) by the method described in Reference Example 2, and the results are shown in FIGS. 4B and 4C.
molecule,measurement,setting,value
B1,BMD of tibias,[1],significantly higher
same,trabecular bones of proximal tibias (micro-CT),[1]; day 70 after OVX,thicker fibers and higher density than those of OVX mice
same,resorption pits,BMMs [2],no resorption pits
same,"TRAP, NFATc1, and OSCAR mRNA expression",BMMs [3],down-regulated
same,number of TRAP-positive multinuclear osteoclasts / osteoclast differentiation,[4],did not induce osteoclast differentiation; also recorded: led to a reduction of TRAP-positive cells
